Measurements as given in article PMC3658131.

Columns and labels:
Test in all cases: ELISA
[1] = target: Bd-cys dimer (affinity-purified cysteine-terminated B-domain, largely dimers linked by a disulfide bond), unlabeled (Staphylococcus aureus)
[2] = target: FL-labeled Bd-cys dimer (disulfide-linked dimer of cysteine-terminated B-domain labelled with FITC) (Staphylococcus aureus)
[3] = target: Staphylococcus aureus protein A (SpA), wild type, full-length (Staphylococcus aureus) (UniProt P02976)
Sequence of UniProt P02976 (P02976 37-485): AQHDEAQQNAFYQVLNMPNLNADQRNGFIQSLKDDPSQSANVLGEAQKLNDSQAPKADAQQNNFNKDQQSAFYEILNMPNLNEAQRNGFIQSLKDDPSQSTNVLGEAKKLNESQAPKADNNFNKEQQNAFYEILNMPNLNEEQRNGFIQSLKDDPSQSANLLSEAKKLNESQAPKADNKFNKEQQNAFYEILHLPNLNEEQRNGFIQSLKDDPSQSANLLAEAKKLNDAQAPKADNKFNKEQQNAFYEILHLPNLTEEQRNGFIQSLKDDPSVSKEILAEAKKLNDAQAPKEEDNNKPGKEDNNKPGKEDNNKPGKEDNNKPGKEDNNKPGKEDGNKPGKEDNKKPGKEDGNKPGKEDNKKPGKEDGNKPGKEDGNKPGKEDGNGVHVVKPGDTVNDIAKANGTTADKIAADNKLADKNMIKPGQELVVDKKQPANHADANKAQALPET

HRP-conjugated guinea pig IgG (antibody)
net absorbance at 405 nm (net absorbance (405 nm)) [1]: 0.85 | net absorbance at 405 nm (net absorbance (405 nm)) [2]: 0.16 | net absorbance at 405 nm (net absorbance (405 nm)) [3]: 0.84

HRP-conjugated rabbit IgG (antibody)
net absorbance at 405 nm (net absorbance (405 nm)) [1]: 0.98 | net absorbance at 405 nm (net absorbance (405 nm)) [2]: 0.21 | net absorbance at 405 nm (net absorbance (405 nm)) [3]: 1.25
